These results are taken from patent publication US20220127569A1, “METHODS OF PROMOTING THYMIC EPITHELIAL CELL AND THYMIC EPITHELIAL CELL PROGENITOR DIFFERENTIATION OF PLURIPOTENT STEM CELLS, RESULTING CELLS, AND USES THEREOF” (THE TRUSTEES OF COLUMBIA UNIVERSITY IN THE CITY OF NEW YORK, priority 2019, published 2022).

One data set deals with pluripotent cells. Nature of the data set: OCT4 expression (qPCR) in day 30 hES-TEP cultures after survivin inhibitor treatment. The data set is classed as cell-based, human. The following applies: YM155 20 nM in the final 24 hours of culture, protocol #4c vs #4c+YM155. Here is the method:
After 108 hours in total on low-adherence plates with endoderm induction media (described above), embryoid bodies were collected and, without being trypsinized, plated on matrigel-coated, 24-well tissue culture plates (approximately 50,000-70,000 cells/well) in SFD medium supplemented with 200 ng/mL recombinant human (rh) Noggin and 10 μM SB431542 (NS) (as described in established protocols Green et al. 2011), with Retinoic Acid (0.25 μM) and FGF8b 50 ng/mL (as a novel modification of this protocol) for 48 hours. […]
(§1) Quantitative Real-Time PCR Total RNA from clusters of ES cells differentiated for the indicated time with the indicated culture method was extracted using Trizol (Invitrogen), and Direct-zol RNA Miniprep Kit (Zymo Research) according to the manufacturer's instructions. […] Real-time quantitative PCR was performed in 20 ul volume using ABI Power SYBR Green PCR Master Mix on an ABI ViiA7 Thermocycler (Applied Biosystems Life Technologies). […] Quantification of each gene transcript was obtained by comparing the average of triplicate experimental CT values to a standard curve of serially diluted genomic DNA for each primer target and then normalized by dividing by the CT housekeeping gene b-Actin.
In general terms: In qPCR the cycle at which signal appears reflects the starting amount.

In a further data set the test system is NSG mice. Nature of the data set: Teratoma formation after hES-TEP transplantation in mice. In kind it is in vivo, mouse. The settings on record: mice grafted with day 30 hES-TEPs treated with YM155. Here is the method: Six to ten week old NSG mice were thymectomized as described (Khosravi-Maharlooei et al. 2020) and allowed to recover for at least 3 weeks. After recovery, animals were conditioned with 1.8 Gy total body irradiation (TBI) via X-rays. Cryopreserved fetal swine thymus (60-90 days gestation) was thawed in Medium 199 supplemented with DNAse, gentamicin and HEPES as above. Fetal swine fragments (1-2 mm^3) were injected or not with 2×10^5 hES-derived TEPs with a 28 gauge syringe and coated with 50% matrigel (Corning) in Medium 199. Four to 24 hours after TBI, 1-2×10^6 hES-derived TEPs mixed with 1-2×10^6 thymic mesenchymal cells, 1-2×10^6 thymic mesenchymal cells alone, fetal swine thymus injected with hES-TEPs or fetal swine thymus alone were implanted beneath the kidney capsule and 2×10^5 fetal human CD34+ cells were injected intravenously. Peripheral human immune reconstitution was assayed every 2-3 weeks post-grafting after full recovery as indicated. Blood was collected from the tail vein and immune populations enriched by density gradient centrifugation with Ficoll as described above. […] Gene correlations were evaluated with Pearson Correlation Coefficient with p<0.05 considered significant, linear regression was also performed and r-square determined. Euthanasia due to teratoma growth was plotted on a Kaplan-Meyer plot and analyzed by Mantel Cox Log-rank test to determine p-value. […]

Another data set has as its system hESCs. Nature of the data set: qPCR gene expression (PAX9, FOXN1) in hESC-derived TEP cultures up to day 30. In kind it is cell-based, human. The protocol: After 108 hours in total on low-adherence plates with endoderm induction media (described above), embryoid bodies were collected and, without being trypsinized, plated on matrigel-coated, 24-well tissue culture plates (approximately 50,000-70,000 cells/well) in SFD medium supplemented with 200 ng/mL recombinant human (rh) Noggin and 10 μM SB431542 (NS) (as described in established protocols Green et al. 2011), with Retinoic Acid (0.25 μM) and FGF8b 50 ng/mL (as a novel modification of this protocol) for 48 hours. For pharyngeal endoderm, the resulting cells were then treated for 24 hours with FGF8b (50 ng/mL) and Retinoic Acid ([…]) followed by 8 days with FGF8b (50 ng/mL) and Sonic Hedgehog (Shh) (100 ng/mL) (FIG. 1B). For the 3rd pharyngeal pouch specification, cells were then exposed to rhNoggin (200 ng/mL) for 6 days, and then to BMP4 (10 ng/mL) until day 30 of differentiation (FIG. 2A). To avoid the formation of teratomas after engrafting in mice, cells were also exposed to survivin inhibitor YM155 (20 nM) (Lee et al. 2013)) for 24 hours during the last step in the later experiments (FIG. 4A). During the entire process, cell cultures were maintained in a 5% C02/air environment at 37° C. Cells were fed every 24 hours.
as §1, with “instructions. NanoDrop 2000 spectrophotometer (ThermoFisher Scientific) was used to determine RNA concentration.” for “instructions.”

A further data set deals with ESCs. Nature of the data set: Flow cytometry / efficiency of definitive endoderm and anterior foregut endoderm induction. The following applies: day 4.5 dissociated embryoid bodies. The data set is classed as cell-based, human. Here is the method: The differentiation was performed as described Huang et al. 2014 in serum-free differentiation (SFD) medium consisting of DMEM/F12 (3:1) (Life Technologies) supplemented with N2 [Gibco (Life Technologies)], B27 (Gibco), ascorbic acid (50 μg/ml, Sigma), Glutamax (2 mM, Life Technologies), monothioglycerol (0.4 μM, Sigma), 0.05% bovine serum albumin (BSA) (Life Technologies) and 1% penicillin-streptomycin (Thermo Fisher Scientific, Waltham, Mass.). Cells were then briefly trypsinized (0.05%, 1 min at 37° C.) into single cell suspension and plated onto low attachment 6-well plates [Costar 2 (Corning Incorporated, Tewksbury Mass.)] to form embryoid bodies in serum-free differentiation medium containing human BMP4, 0.5 ng/ml, human bFGF, 2.5 ng/ml (R&D Systems) and human activin A, 100 ng/ml (R&D Systems) for 84 hours (3.5 days approximately) on low-adherence plates. Embryoid bodies were then collected, briefly trypsinized (0.05%, 1 min at 37° C.) into 3-10 small cell clumps and resuspended again in endoderm induction medium for another 24 hours. Cells were fed every 24-48 hr (depending on the density) and maintained in a 5% CO2/5% O2/90% N2 environment. […]
Human immune reconstitution and differentiation efficiency of hES-TEP cultures were determined by multi-parametric flow cytometry. […]

As to `COCCn1c2c([n+](Cc3cnccn3)c1C)C(=O)c1ccccc1C2=O` [YM155], in the data set on pluripotent cells, the OCT4 expression result was “significantly reduced”. Moreover, the animals developing teratomas in the data set with NSG mice was 3 of 15.

B1: BMP4: human Bone Morphogenic Protein 4 (protein, UniProt P12644 293-408, looked up)
Bone morphogenetic protein 4: SPKHHSQRARKKNKNCRRHSLYVDFSDVGWNDWIVAPPGYQAFYCHGDCPFPLADHLNSTNHAIVQTLVNSVNSSIPKACCVPTELSAISMLYLDEYDKVVLKNYQEMVVEGCGCR
Consider B1, for which the “expression of FoxN1” value with hESCs (BMP4 added to day 15 cultures without prior Noggin, assayed at culture day 22 and 30, protocols #3b and #4b) was “failed to induce expression”. The “FOXN1 expression day 30 vs day 21” value in the data set with hESCs (protocol #4c, before and after BMP4 exposure) is given as “significantly higher”.

B2: Activin A: human activin A used in endoderm induction medium (protein, UniProt P08476 311-426, looked up)
Inhibin beta A chain: GLECDGKVNICCKKQFFVSFKDIGWNDWIIAPSGYHANYCEGECPSHIAGTSGSSLSFHSTVINHYRMRGHSPFANLKSCCVPTKLRPMSMLYYDDGQNIIKKDIQNMIVEECGCS
With B2, in the data set on ESCs, the “co-expression of endoderm markers EpCAM and CXCR4, cells” value is listed as 98.3%.

B3: Noggin: recombinant human Noggin, a BMP4 antagonist and/or inhibitor (protein, UniProt Q13253 28-232, looked up)
Noggin: QHYLHIRPAPSDNLPLVDLIEHPDPIFDPKEKDLNETLLRSLLGGHYDPGFMATSPPEDRPGGGGGAAGGAEDLAELDQLLRQRPSGAMPSEIKGLEFSEGLAQGKKQRLSKKLRRKLQMWLWSQTFCPVLYAWNDLGSRFWPRYVKVGSCFSKRSCSVPEGMVCKPSKSVHLTVLRWRCQRRGGQRCGWIPIQYPIISECKCSC
Consider B3, for which the PAX9 expression entry in the data set on hESCs (Noggin from day 16 to day 22, protocols #3c and #4c vs #3b and #4b, day 30) is recorded as “significantly increased”.
